Assay results from PMC8878332, “The C-Terminal Domain of Staphylococcus aureus Zinc Transport Protein AdcA Binds Plasminogen and Factor H In Vitro” (Pathogens, 2022).

Target: T1, Human plasminogen (human)
T1 construct: human plasminogen, 92 kDa, commercial; also called PLG; purified plasminogen; source: bought: Sigma-Aldrich
Assay: ELISA; plasminogen immobilised on plate wells (1 ug in 100 uL PBS), blocked with 1% gelatin; AdcA 0-1 uM in PBS, 1.5 h at 37 C; bound AdcA detected with rabbit anti-AdcA serum; apparent KD from the fit to total binding saturation (GraphPad Prism); MntC run as control; EACA (0.1-10 mM) or NaCl (25-800 mM) added in further panels
Conditions: both partners purified

T1 sequence (P00747 20-810): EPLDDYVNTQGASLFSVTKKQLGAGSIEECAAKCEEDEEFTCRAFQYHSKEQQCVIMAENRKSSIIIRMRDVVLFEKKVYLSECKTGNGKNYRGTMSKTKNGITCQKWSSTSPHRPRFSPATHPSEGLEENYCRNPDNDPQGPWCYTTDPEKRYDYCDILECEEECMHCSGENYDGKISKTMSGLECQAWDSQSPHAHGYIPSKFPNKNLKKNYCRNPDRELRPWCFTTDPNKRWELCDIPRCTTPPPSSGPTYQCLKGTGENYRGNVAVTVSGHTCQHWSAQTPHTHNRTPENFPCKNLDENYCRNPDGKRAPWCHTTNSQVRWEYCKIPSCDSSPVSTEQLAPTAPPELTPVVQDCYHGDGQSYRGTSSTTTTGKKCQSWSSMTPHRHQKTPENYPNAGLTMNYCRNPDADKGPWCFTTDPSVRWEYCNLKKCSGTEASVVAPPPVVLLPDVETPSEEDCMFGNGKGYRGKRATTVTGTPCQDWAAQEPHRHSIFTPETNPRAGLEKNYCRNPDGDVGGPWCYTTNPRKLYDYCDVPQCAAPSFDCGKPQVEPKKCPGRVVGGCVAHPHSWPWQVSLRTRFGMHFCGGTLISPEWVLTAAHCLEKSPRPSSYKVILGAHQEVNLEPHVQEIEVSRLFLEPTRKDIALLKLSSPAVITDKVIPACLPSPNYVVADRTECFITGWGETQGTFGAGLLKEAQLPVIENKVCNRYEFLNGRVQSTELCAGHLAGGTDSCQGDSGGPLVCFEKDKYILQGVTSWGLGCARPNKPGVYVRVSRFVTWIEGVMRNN

B1: MntC from Staphylococcus aureus (natural protein)
chain: CGTGGKQSSDKSNGKLKVVTTNSILYDMAKNVGGDNVDIHSIVPVGQDPHEYEVKPKDIKKLTDADVILYNGLNLETGNGWFEKALEQAGKSLKDKKVIAVSKDVKPIYLNGEEGNKDKQDPHAWLSLDNGIKYVKTIQQTFIDNDKKHKADYEKQGNKYIAQLEKLNNDSKDKFNDIPKEQRAMITSEGAFKYFSKQYGITPGYIWEINTEKQGTPEQMRQAIEFVKKHKLKHLLVETSVDKKAMESLSEETKKDIFGEVYTDSIGKEGTKGDSYYKMMKSNIETVHGSMK
Kd: 14.8 nM
